This is an account of results in PMC6935017 (Cell, 2018).

This series deals with the molecule itself. The series is described as follows: crystal structure.

B1: Streptococcus thermophilus Csm3 (natural protein, Streptococcus thermophilus ND03)
chain: MTFAKIKFSAQIRLETGLHIGGSDAFAAIGAIDSPVIKDPITNIPIIPGSSLKGKMRTLLAKVYNEKVAEKPSDDSDILSRLFGNSKDKRFKMGRLIFRDAFLSNADELDSLGVRSYTEVKFENTIDRITAEANPRQIERAIRNSTFDFELIYEITDENENQVEEDFKVIRDGLKLLELDYLGGSGSRGYGKVAFEKLKATTVFGNYDVKTLNELLTAEV
As a reminder, the stoichiometry N is the number of molecules, sites or subunits per partner or assembly. B1: the “stoichiometry N” value is 3.

B2: Streptococcus thermophilus Csm2 (natural protein, Streptococcus thermophilus ND03, UniProt A0A0A7HIX1 1-121, looked up)
chain: MAILTDENYVDKAERAISLLEKDNKGNYLLTTSQIRKLLSLCSSLYDRSKERKFDELINDVSYLRVQFVYQAGREIAVKDLIEKAQILEALKEIKDRETLQRFCRYMEALVAYFKFYGGKD
For the protein B2, the “stoichiometry N” value is 2.
